The record followed here is patent publication US20090035266A1 (US Dept. of Health and Human Services, published 2009).

Assay [1] concerns the target T1, HLA-A2 molecules on T2 cells (human).
T1 construct: whole, on cells; MHC class I molecule on the cell surface; also called HLA-A2.1
Description: T2 cells loaded overnight with 12.5 µg/ml peptide, washed, brefeldin A, surface HLA-A2 by flow cytometry (FIG. 1B). On the procedure: FIGS. 1A and 1B are line graphs showing the binding of native PAGE4 peptides and their agonist peptides to HLA-A2 molecules. Peptides were analyzed for binding to T2 cell line as described in Example 1. For the results presented in FIG. 1A, peptides were used at concentrations of 0 to 25 μg/ml. P16 peptide (◯), P16-1, P16-2 (▴), P84 (□) and P84-1 (▪), positive control (MUC-1 peptide) (+) and negative control (HLA-A3 binding peptide) (X). Results are expressed in mean fluorescence intensity (MFI). FIG. 1B presents a comparison of the stability of HLA-A2 peptide complexes of PAGE4 native and agonist peptides. T2 cells were incubated overnight with P16 peptide (◯), P16-1, P16-2 (▴), P84 (□) and P84-1 (▪) peptides at a concentration of 12.5 μg/ml and then were washed free of unbound peptide and incubated with brefeldin A to block delivery of new class 1 molecules to the cell surface. At the indicated times, cells were stained for the presence of surface peptide-HLA-A2 complexes. Results are expressed in relative percentage of binding compared with 100% at time 0.
The analogues of P16 were designated P16-1 and P16-2, and the analogue of P84 was designated as P84-1. These peptides bound to HLA-A2 at higher levels than their native peptides. Studies were then conducted to examine the ability of these peptides to bind HLA-A2 at various concentrations. […] Studies were then undertaken to examine the stability of the peptide-MHC complex for the peptides P16, P84, P16-1, P16-2 and P84-1. Each peptide was incubated with T2 cells overnight, the unbound peptides were washed off, and the cells were then incubated with Brefeldin A to block delivery of new class I molecules to the cell surface. Cells were analyzed for the presence of peptide-HLA-A2 complexes at various time points.

The target in assay [2] is T1, HLA-A2 molecules on T2 cells. In words: T2 cell HLA-A2 upregulation assay, flow cytometry, peptide 25 µg/ml. As to the method:
(§1) The primary amino acid sequence of human PAGE4 was analyzed for consensus motifs for novel HLA-A2 binding peptides. Two 10-mer peptides (P16-25 designated as P16 and P59-68 designated as P59) and one 9-mer peptide (P84-92 designated as P84) were identified and evaluated (Table 1). […] For this reason, five different analogues of native peptides were synthesized and were investigated for their binding ability to HLA-A2-positive T2 cells along with the native P16, P59 and P84 peptides. A MUC-1 peptide and a CEA HLA-A3 binding peptide (CAP-7) were used as a positive and negative control, respectively (Tsang et al., J Natl Cancer Inst 1995; 87:982-90).
Peptides were used at a concentration of 25 μg/ml. Amino acids are shown by the single-letter code. Substitution amino acids are indicated in bold italic and underlined. MUC-1 peptide is an HLA-A2 binding peptide and CAP-7 is an HLA-A3 binding CEA peptide. ^aResults are expressed in mean fluorescence intensity (MFI). Values in parentheses are fold increases as compared with the negative control.

For assay [3] the target is unchanged. In words: T2 cell HLA-A2 upregulation assay, flow cytometry. On the procedure:
as §1

For the molecule KTPPNPKHA (Synthetic peptide; also called P84-92) [P84 (native) PAGE4 peptide, amino acids 84-92], the “percent of peptide-HLA-A2 complexes remaining over 8 hours” value in assay [1] is > 43.6%. In addition, in assay [2], the “T2 binding (MFI)” value was 270 MFI and the “fold increase as compared with the negative control” value (from here on “fold increase”) amounted to 1.04 fold.

B1: P16 (native) PAGE4 peptide, amino acids 16-25 (peptide)
peptide: QEAPDVVAFV
notes: Synthetic peptide, purity >95%; also called P16-25
Take B1: in assay [2], the “T2 binding (MFI)” value is 309 MFI and the “fold increase” value stood at 1.2 fold.

In the case of QLAPDVVAFV [P16 (17L) PAGE4 agonist peptide], the “percent of peptide-HLA-A2 complexes remaining over 8 hours” value in assay [1] was > 43.6%. For the same molecule, in assay [2], the “T2 binding (MFI)” value stood at 827 MFI and the “fold increase” value was found to be 3.2 fold.

In the case of YLAPDVVAFV (also called P16-2) [P16 (16Y/17L) PAGE4 agonist peptide], the “percent of peptide-HLA-A2 complexes remaining over 8 hours” value in assay [1] is > 43.6%. In addition, in assay [2], the “T2 binding (MFI)” value was 790 MFI and the “fold increase” value is 3 fold.

For the molecule YLPPNPKHV (also called P84-1) [P84 (84Y/85L/92V) PAGE4 agonist peptide], in assay [1], the “percent of peptide-HLA-A2 complexes remaining over 8 hours” value was > 43.6%. For the same molecule, in assay [2], the “T2 binding (MFI)” value was 546 MFI and the “fold increase” value stood at 2.1 fold.

As to VEGDCQEMDL (Synthetic peptide; also called P59-68) [P59 (native) PAGE4 peptide, amino acids 59-68], the binding result in assay [3] is “no binding (tested: 25 µg/ml)”. Besides, in assay [2], the “T2 binding (MFI)” value was found to be 246 MFI and the “fold increase” value worked out at 0.9 fold.

For the molecule VLGDCQEMDL (also called P59-1) [P59 (60L) PAGE4 analogue peptide], in assay [2], the “T2 binding (MFI)” value was determined as 293 MFI and the “fold increase” value worked out at 1.1 fold.

Take YLGDCQEMDV (also called P59-2) [P59 (59Y/60L/68V) PAGE4 analogue peptide]: in assay [2], the “T2 binding (MFI)” value was 384 MFI and the “fold increase” value was found to be 1.5 fold.

B2: MUC-1 peptide (peptide)
peptide: ALWGQDVTSV
notes: Positive control of the T2 assay; also called positive control
Turning to B2, in assay [2], the “T2 binding (MFI)” value came out at 710 MFI and the “fold increase” value was determined as 2.7 fold.
